Article PMC3156124

Assays:
GEP100 = GEP100 (UniProt Q6DN90); assay: anti-HA (GEP100) IP, anti-V5 (VEGFR2) blot; details: reference: wild type VEGFR2-V5; sites Y951
GEP100 PH domain = GEP100 PH domain (UniProt Q6DN90); assay: peptide dot-blot overlaid with GST-PH; details: reference: non-phosphorylated Tyr951 peptide; sites Y951

binding against the reference (GEP100) | binding against the reference (GEP100 PH domain) | Substance
lost |  | VEGFR2 (from UniProt P35968) 951F
 | gained | VEGFR2 Tyr951 peptide (from UniProt P35968) pY951 peptide
